{"source": "patent US11932673B2", "about": "“Sodium channel inhibitors” (priority 2017, dated 2024)", "molecules": {"B1": {"name": "KB_A12: EETI-II VL CDR2 KnotBody, D1A12 VH, VL SEQ ID NO: 105/373; parental/isotype control (antibody, V domains shown)", "VH": "EVQLVESGGGLVRPGGSLRLSCAASGFTFSSYAMSWVRQAPGKGLEWVSAISGSGGSTYYADSVKGRFTISRDNTKNSLYLQMTSLRADDTAFYYCVKDFGPGYGTGWFDYWGPGTLVTVSS", "VL": "QSVLTQPPSVSEAPRQRVTITCSGSSSNIGNNAVNWYQQLPGKAPKLLIYAAGRCPRILMRCKQDSDCLAGCVCGPNGFCGANSGVSDRFSAAKSGTSASLAINGLRSEDEADYYCAAWDDSLNGYVFGTGTKLTVLG"}}, "test_system": "trypsin", "experiment": "Phage TRF binding assay of KnotBody phage on immobilised biotinylated trypsin", "experimental": "Phage display technology facilitates isolation of binders to any given target from large combinatorial repertoires based on proteins and peptides that can be presented on the surface of filamentous phage^105. In order to isolate functional knottin-antibody fusions from the KnotBody libraries multiple rounds of phage display selections on trypsin (cognate antigen for the EETI-II donor) were carried out. Phage particles were prepared by rescuing KnotBody libraries using trypsin cleavable helper phage^102,106 Two rounds of phage display selections were performed on 10 μg/ml biotinylated trypsin immobilised on Streptavidin (for Round-1) or Neutravidin (for round-2) coated Maxisorp™ immunotubes (Thermo Scientific, Cat No. 444202). In both rounds of selection, phage libraries were pre-incubated with streptavidin coated paramagnetic beads (Thermo Fisher Scientific, Cat. No. 11205D). These beads were removed prior to the addition the phage to the antigen tubes to limit the streptavidin binders entering the selection. Polyclonal phage preparations from round-2 selection outputs were analysed for trypsin binding using a time resolved fluorescence (TRF) binding assay. In this assay, polyclonal phage binding to biotinylated trypsin immobilised on neutravidin (Thermo Fisher Scientific, Cat. No 31000) coated Maxisorp™ plates (Thermo Scientific, Cat. No. 437111) was detected using a mouse anti-M13 antibody (GE Healthcare, Cat. No. 27-9420-01) followed by europium conjugated anti-mouse antibody (Perkin Elmer, Cat. No. AD0124).\nIn order to identify monoclonal KnotBodies with desired binding characteristics, 94 individual clones derived from 2 rounds of selection using EETI-II CDR1 or CDR2 libraries were picked into 96 well culture plates and phage were prepared from each clone. Methods for screening by monoclonal phage ELISA are known in the art^107. […] Clones with >3× binding signal above background were picked as positive clones and sequenced to identify unique clones. 14 and 42 unique binders were identified from EETI-II CDR1 and EETI-II CDR2 libraries respectively (Table 1). 18 binders from the EETI-II CDR2 library and 3 binders from the EETI-II-CDR1 library were chosen for further characterisation based on their VL and linker sequence diversity. These binders were assigned new clone identification numbers (Table 2). […] In order to confirm that the loss of trypsin binding was not due to reduced expression or display of pIII fusion phage was prepared from 11 (randomly chosen) KnotBodies and their GlyAla variants were analysed on a western blot using an antibody which recognises the product of gene 3 (pIII) using an anti-pIII antibody (MoBiTec GmbH) (FIG. 6).", "data": [{"molecule": "B1", "values": [{"measurement": "% reduction in binding signal", "setting": "[…], monoclonal phage, streptavidin coated plates", "result": 99, "unit": "%"}, {"measurement": "Tryspin binding signal (FU)", "setting": "monoclonal phage supernatant, biotinylated trypsin on neutravidin coated plates, TRF", "result": 69349, "unit": "FU"}]}]}
